Data on one molecule can be found in patent publication US20040205843A1 (NORTH CAROLINA STATE UNIVERSITY, published 2004).

Common to all, as to test: GST co-purification from insect cells, immunoblot
Background: In western blotting, separated proteins are transferred to a membrane and probed.

One assay has as its target T1, GST-AL1 119-180 (tomato golden mosaic virus (TGMV), UniProt P03567 119-180).
T1 sequence: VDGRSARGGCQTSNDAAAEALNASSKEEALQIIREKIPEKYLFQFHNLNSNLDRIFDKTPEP

The next assay addresses T2, GST-AL1(119-352) (tomato golden mosaic virus (TGMV), UniProt P03567 119-352).
T2 construct: also called N-terminal truncation of AL1 fused to GST
T2 sequence: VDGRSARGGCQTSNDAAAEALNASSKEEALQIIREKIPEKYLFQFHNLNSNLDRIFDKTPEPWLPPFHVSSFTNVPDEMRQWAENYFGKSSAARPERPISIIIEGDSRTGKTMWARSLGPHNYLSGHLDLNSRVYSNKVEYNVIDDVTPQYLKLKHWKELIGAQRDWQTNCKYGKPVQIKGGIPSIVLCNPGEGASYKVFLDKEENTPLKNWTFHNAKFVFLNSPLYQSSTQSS

For a further assay, the target named is T3, GST-AL1(1-180) (tomato golden mosaic virus (TGMV), UniProt P03567 1-180).
T3 construct: also called C-terminal truncation of AL1 fused to GST
T3 sequence: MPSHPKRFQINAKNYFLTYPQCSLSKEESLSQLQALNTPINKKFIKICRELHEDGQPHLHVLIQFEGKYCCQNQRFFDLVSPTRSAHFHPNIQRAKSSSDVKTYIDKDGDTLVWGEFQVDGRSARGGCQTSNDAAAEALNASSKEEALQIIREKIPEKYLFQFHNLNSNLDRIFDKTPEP

In assay [1] the target is T4, Full length GST-AL1 1-352 (tomato golden mosaic virus (TGMV), UniProt P03567 1-352).
T4 sequence: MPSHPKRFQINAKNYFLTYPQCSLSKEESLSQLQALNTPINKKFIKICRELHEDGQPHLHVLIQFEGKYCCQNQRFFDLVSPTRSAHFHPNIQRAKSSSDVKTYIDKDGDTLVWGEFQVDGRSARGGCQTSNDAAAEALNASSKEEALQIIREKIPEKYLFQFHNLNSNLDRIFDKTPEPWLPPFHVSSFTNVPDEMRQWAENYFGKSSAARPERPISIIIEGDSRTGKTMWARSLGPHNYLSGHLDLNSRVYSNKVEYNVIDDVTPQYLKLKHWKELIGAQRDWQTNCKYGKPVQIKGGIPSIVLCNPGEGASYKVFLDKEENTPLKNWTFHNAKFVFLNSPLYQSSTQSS

B1: AL1 EKY159 (Ala7), full length, untagged (other)
chain: MPSHPKRFQINAKNYFLTYPQCSLSKEESLSQLQALNTPINKKFIKICRELHEDGQPHLHVLIQFEGKYCCQNQRFFDLVSPTRSAHFHPNIQRAKSSSDVKTYIDKDGDTLVWGEFQVDGRSARGGCQTSNDAAAEALNASSKEEALQIIREKIPAAALFQFHNLNSNLDRIFDKTPEPWLPPFHVSSFTNVPDEMRQWAENYFGKSSAARPERPISIIIEGDSRTGKTMWARSLGPHNYLSGHLDLNSRVYSNKVEYNVIDDVTPQYLKLKHWKELIGAQRDWQTNCKYGKPVQIKGGIPSIVLCNPGEGASYKVFLDKEENTPLKNWTFHNAKFVFLNSPLYQSSTQSS
As for B1, the binding result with GST-AL1 119-180 was “no binding”; with GST-AL1(119-352), “binds”; in the assay with GST-AL1(1-180), “no binding”; in assay [1], “binds”.
